B1: JL987 70-nt ssDNA (ssDNA)
DNA: ATTATTATTATTATTATTATTATTATTATTATTATTATTTCATTTATTTATTTATTTATTTATTTATTTA
B2: JL986 60-nt ssDNA (ssDNA)
DNA: ATTATTATTATTATTATTATTATTATTATTATTTCATTTATTTATTTATTTATTTATTTA
B3: JL988 80-nt ssDNA (ssDNA)
DNA: ATTATTATTATTATTATTATTATTATTATTATTATTATTATTATTTCATTTATTTATTTATTTATTTATTTATTTATTTA

What was measured:
APOBEC3A (A3A) WT [1] = target: T1, APOBEC3A (A3A) WT (human, UniProt P31941 1-199); assay: EMSA; 20 nM DNA; NMR: 25 mM sodium phosphate pH 6.9, 10 mM DTT, 25 C, 0.074 mM A3A; EMSA: protocol of Byeon et al. (ref 16), buffer not given, 20 nM DNA, 25-100 uM A3A
T1 sequence (P31941 whole entry): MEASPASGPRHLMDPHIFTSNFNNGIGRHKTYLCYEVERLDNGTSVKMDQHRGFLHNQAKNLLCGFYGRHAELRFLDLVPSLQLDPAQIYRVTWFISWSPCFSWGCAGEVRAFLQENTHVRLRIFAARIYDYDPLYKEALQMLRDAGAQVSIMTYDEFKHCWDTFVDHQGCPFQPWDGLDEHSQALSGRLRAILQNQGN

APOBEC3A (A3A) WT [2] = target: T1, APOBEC3A (A3A) WT; assay: NMR titration (1H-15N HSQC); 25 mM sodium phosphate pH 6.9, 10 mM DTT, 25 C; Zn2+ enzyme; NMR: 25 mM sodium phosphate pH 6.9, 10 mM DTT, 25 C, 0.074 mM A3A; EMSA: protocol of Byeon et al. (ref 16), buffer not given, 20 nM DNA, 25-100 uM A3A
APOBEC3A Y130F = APOBEC3A Y130F (human, UniProt P31941 1-199, Y130F); assay: EMSA; 60 or 80 uM protein; similar to WT; NMR: 25 mM sodium phosphate pH 6.9, 10 mM DTT, 25 C, 0.074 mM A3A; EMSA: protocol of Byeon et al. (ref 16), buffer not given, 20 nM DNA, 25-100 uM A3A
Sequence of APOBEC3A Y130F (P31941 whole entry Y130F): as the sequence (P31941 whole entry) above, with Y130F counted along it

APOBEC3A D131E = APOBEC3A D131E (human, UniProt P31941 1-199, D131E); assay: as above
Sequence of APOBEC3A D131E (P31941 whole entry D131E): as the sequence (P31941 whole entry) above, with D131E counted along it

APOBEC3A E72Q = APOBEC3A E72Q (human, UniProt P31941 1-199, E72Q); assay: as above
Sequence of APOBEC3A E72Q (P31941 whole entry E72Q): as the sequence (P31941 whole entry) above, with E72Q counted along it

| Binder | binding result (APOBEC3A (A3A) WT [1]) | Kd (APOBEC3A (A3A) WT [2]) [µM] | binding result (APOBEC3A Y130F) | binding result (APOBEC3A D131E) | binding result (APOBEC3A E72Q) |
| --- | --- | --- | --- | --- | --- |
| B1 | binds | – | – | – | – |
| B2 | binds | – | – | – | – |
| AUUUCAUUU (ssRNA) [JL1181 9-nt ssRNA] | – | 420 ± 70 | – | – | – |
| B3 | binds | – | binds | binds | binds |

From publication PMC3902935
